“Also recorded” adds a separate entry of the source.

From US20220143136A1, “USE OF ANNEXINS IN PREVENTING AND TREATING MUSCLE MEMBRANE INJURY” (NORTHWESTERN UNIVERSITY, priority 2018, published 2022) come the findings set out here.

For assay [1], the system named is dysferlin-null (Dysf129) myofibers. In words: Laser-induced membrane injury, FM 4-64 dye uptake, dysferlin-null myofibers. Type of assay: cell-based, mouse. The conditions noted are these: LGMD2B model. How it is done: Myofiber isolation. Flexor digitorum brevis (FDB) fibers were isolated with methods that were described previously in (Demonbreun and McNally, 2015; Demonbreun et al., 2016b; DiFranco et al., 2009). Briefly, fibers were dissociated in 0.2% BSA plus collagenase type II (Cat #17101, Thermo Fisher Scientific, Waltham, Mass.) for 60 minutes at 37 degrees in 10% CO2. Fibers were then moved to Ringers solution and placed on MatTek confocal microscopy dishes (Cat #P35G-1.5-14-C, MatTek, Ashland Mass.).
Multiphoton laser injury and imaging. Isolated fibers were subjected to laser-induced damage at room temperature using the Nikon A1R-MP multiphoton microscope. Imaging was performed using a 25×1.1 NA objective directed by the NIS-Elements AR imaging software. Green fluorescence protein (GFP) and FM 4-64 were excited using a 920 nm wavelength laser and emission wavelengths of 575 nm and 629 nm were collected respectively. […] Fluorescence intensity and cap area were measured using Fiji (NIH).
For recombinant protein studies, myofibers were isolated from mice as described above. […] Cap size was assessed from acquired images in FIJI. […] Images were acquired and quantitated as described above. FM 4-64 fluorescence at endpoint was measured using FIJI.

A further assay deals with wildtype myofibers. In words: Laser-induced membrane injury, FM 4-64 dye uptake. Format: cell-based, mouse. To be noted: for FM 4-64 fluorescence area / dye uptake after laser injury: extracellular recombinant protein vs vehicle control.
Another assay relates to Sgcg-null mice. In words: Anti-HIS immunofluorescence localization after systemic injection, Sgcg-null versus wildtype. Format: in vivo, mouse. How it is done: Immunofluorescence microscopy. Mice were systemically injected with recombinant annexin A6 with a C-terminal HIS tag (R&D). Muscle was harvested and flash frozen. Muscle sections (10 μm thick) from the center of frozen-embedded muscles were collected on the cryostat (chamber, −20° C.; sample, −15° C.; catalog number CM1950; Leica, Wetzlar, Germany) for immunostaining. Tissues were fixed with 4% paraformaldehyde for 10 minutes on ice. Block and permeabilization were with 0.1% Triton (catalog number X-100; Sigma-Aldrich), 10% fetal bovine serum, and PBS for 60 minutes. For laminin detection, anti-laminin antibody was used at a dilution of 1:100 and for HIS detection, anti-HIS antibody was used at 1:100 overnight at 4° C. Hoechst labelled nuclei. Sections were PBS rinsed, incubated with secondary antibody for 1 hour, PBS rinsed, and mounted. Imaging was performed using a Zeiss Axio Observer A1 microscope (Zeiss, Oberkochen, Germany).

In a further assay the test system is mdx/hLTBP4 myofibers. In words: Laser-induced membrane injury, FM 4-64 dye uptake, dystrophic myofibers. Format: cell-based, mouse. The conditions noted are these: 25 μg/ml extracellular recombinant protein vs vehicle control, dystrophic (DMD model) myofibers. How it is done: For recombinant myofibers studies, myofibers were isolated from mdx/hLTBP4 mice as described above. Myofibers were incubated in Ringer's media with or without 25 μg/ml recombinant annexin A6 (5186-A6-050, R&D systems). FM 4-64 ([…]) was added to the myofibers just prior to imaging. Images were acquired and quantitated as described above. FM 4-64 area was measured using FIJI at imaging endpoint from a single slice near the middle of the z-stack. Z-stack step size (0.125 μm) was acquired from cap end to end.
Multiphoton laser injury and imaging. Fibers were subjected to laser-induced damage at room temperature using the Nikon A1R-MP multiphoton microscope. Imaging was performed using a 25×1.1 NA objective directed by the NIS-Elements AR imaging software. Green fluorescence protein (GFP) and FM 4-64 were excited using a 920 nm wavelength laser and emission wavelengths of 575 nm and 629 nm were collected respectively. To induce laser damage on isolated myofibers, a diffraction limited spot (diameter approximately 410 nm) was created on the lateral membrane of the myofiber using a 920 nm wavelength laser at 10-15% laser power for 1 second. […]
Multiphoton laser injury and imaging. […] Green fluorescence protein (GFP) and FM 4-64 were excited using a 920 nm wavelength laser and emission wavelengths of 575 nm and 629 nm were collected respectively. […]

B1: annexin A6: annexin A6 with carboxyl-terminal turboGFP or tdTomato tag, expressed from plasmid electroporated into myofibers (protein, UniProt P14824 2-673, looked up)
Annexin A6: AKIAQGAMYRGSVHDFPEFDANQDAEALYTAMKGFGSDKESILELITSRSNKQRQEICQNYKSLYGKDLIEDLKYELTGKFERLIVNLMRPLAYCDAKEIKDAISGVGTDEKCLIEILASRTNEQMHQLVAAYKDAYERDLESDIIGDTSGHFQKMLVVLLQGTRENDDVVSEDLVQQDVQDLYEAGELKWGTDEAQFIYILGNRSKQHLRLVFDEYLKTTGKPIEASIRGELSGDFEKLMLAVVKCIRSTPEYFAERLFKAMKGLGTRDNTLIRIMVSRSELDMLDIREIFRTKYEKSLYSMIKNDTSGEYKKALLKLCGGDDDAAGQFFPEAAQVAYQMWELSAVSRVELKGTVCAANDFNPDADAKALRKAMKGIGTDEATIIDIVTHRSNAQRQQIRQTFKSHFGRDLMADLKSEISGDLARLILGLMMPPAHYDAKQLKKAMEGAGTDEKTLIEILATRTNAEIRAINEAYKEDYHKSLEDALSSDTSGHFRRILISLATGNREEGGENRDQAQEDAQVAAEILEIADTPSGDKTSLETRFMTVLCTRSYPHLRRVFQEFIKKTNYDIEHVIKKEMSGDVKDAFVAIVQSVKNKPLFFADKLYKSMKGAGTDEKTLTRVMVSRSEIDLLNIRREFIEKYDKSLHQAIEGDTSGDFMKALLALCGGED
modifications: C-terminal turboGFP or tdTomato tag
notes: annexin A6 with carboxyl-terminal turboGFP or tdTomato tag, expressed from plasmid electroporated into myofibers
Regarding B1, in assay [1] (plasmid overexpression of annexin A6 vs control), the “FM 4-64 dye uptake after laser injury” value was “significant reduction; also recorded: reduced”. Moreover, the “FM 4-64 dye uptake after laser-induced injury” value in the assay with wildtype myofibers (plasmid overexpression of annexin A6-GFP vs mock electroporated control) is “decreased; also recorded: reduced”.

B2: recombinant annexin A6: recombinant human annexin A6 protein with C-terminal HIS tag (5186-A6-050, R&D systems); mouse protein from Northwestern core in one cohort (protein, UniProt P08133 2-673, looked up)
Annexin A6: AKPAQGAKYRGSIHDFPGFDPNQDAEALYTAMKGFGSDKEAILDIITSRSNRQRQEVCQSYKSLYGKDLIADLKYELTGKFERLIVGLMRPPAYCDAKEIKDAISGIGTDEKCLIEILASRTNEQMHQLVAAYKDAYERDLEADIIGDTSGHFQKMLVVLLQGTREEDDVVSEDLVQQDVQDLYEAGELKWGTDEAQFIYILGNRSKQHLRLVFDEYLKTTGKPIEASIRGELSGDFEKLMLAVVKCIRSTPEYFAERLFKAMKGLGTRDNTLIRIMVSRSELDMLDIREIFRTKYEKSLYSMIKNDTSGEYKKTLLKLSGGDDDAAGQFFPEAAQVAYQMWELSAVARVELKGTVRPANDFNPDADAKALRKAMKGLGTDEDTIIDIITHRSNVQRQQIRQTFKSHFGRDLMTDLKSEISGDLARLILGLMMPPAHYDAKQLKKAMEGAGTDEKALIEILATRTNAEIRAINEAYKEDYHKSLEDALSSDTSGHFRRILISLATGHREEGGENLDQAREDAQVAAEILEIADTPSGDKTSLETRFMTILCTRSYPHLRRVFQEFIKMTNYDVEHTIKKEMSGDVRDAFVAIVQSVKNKPLFFADKLYKSMKGAGTDEKTLTRIMVSRSEIDLLNIRREFIEKYDKSLHQAIEGDTSGDFLKALLALCGGED
modifications: C-terminal His tag
notes: recombinant human annexin A6 protein with C-terminal HIS tag (5186-A6-050, R&D systems); mouse protein from Northwestern core in one cohort
For B2, the “anti-HIS immunofluorescence at the muscle membrane” value with Sgcg-null mice (Sgcg-null (LGMD2C) muscle) was “localized to the muscle membrane”; in the assay with Sgcg-null mice (Sgcg-null (LGMD2C) muscle, listed as rANXA6) it was “increased”; in the assay on Sgcg-null mice (uninjured wildtype muscle), “minimal”. Besides, in assay [1] (extracellular recombinant protein vs vehicle control), the “FM 4-64 fluorescence area after laser injury” value is on record as “reduced; also recorded: decreased”. Further, the “FM 4-64 fluorescence / dye uptake after laser injury” value in the assay with mdx/hLTBP4 myofibers is listed as “reduced”; in the assay on mdx/hLTBP4 myofibers (listed as rANXA6), “significantly smaller; also recorded: significantly less”. Moreover, the figures for the “FM 4-64 fluorescence area / dye uptake after laser injury” value in the assay with wildtype myofibers and with wildtype myofibers (listed as rANXA6) were “reduced” and “significantly smaller; also recorded: significantly less”, respectively.
